According to paper PMC7092467, “Transaldolase in Bacillus methanolicus: biochemical characterization and biological role in ribulose monophosphate cycle” (BMC Microbiology, 2020):

Experiments:
[1] = target: Recreated full-length transaldolase of Bacillus methanolicus MGA3 (Ta^MGA3rec), C-terminal hexahistidine-tagged (Bacillus methanolicus MGA3); assay: SEC; gel filtration of 1 mg purified Ta dissolved in 2 ml of 20 mM Tris-HCl, pH 7.8, with Ta activity assays of the eluted fractions; eluted in a single fraction corresponding to 54 kDa
purified protein = substrate: O=C[C@H](O)[C@H](O)COP(=O)(O)O; assay: purified protein; format: biochemical, Bacillus methanolicus; details: co-substrate F6P, 50 mM Tris-HCl pH 7.8, 50 °C, 0.25 mM NADH
[2] = target: the molecule itself; assay: SEC; gel filtration of 1 mg purified Ta dissolved in 2 ml of 20 mM Tris-HCl, pH 7.8, with Ta activity assays of the eluted fractions; eluted in a single fraction corresponding to 54 kDa

“Recreated full-length transaldolase of Bacillus methanolicus MGA3 (Ta^MGA3rec), C-terminal hexahistidine-tagged (enzyme)” gave a stoichiometry N [1] of 2.

B1: Transaldolase of Bacillus methanolicus PB1 (Ta^PB1), C-terminal hexahistidine-tagged (enzyme, UniProt I3E1B6 1-229, looked up)
chain: MIQNSIQRNKGGVIIKFFIDTANIDEIREAHSLGILSGVTTNPSLVAKEKNVKFHDRLREIAGLVPGSVSAEVIALDTEGMIKEGRELASIAPNITVKVPMTPESLKAVHALSKEGIKTNVTLIFSANQALLAARAGATYVSPFLGRLDDIGHNGLELISTIADIFAIHQIKTEIIAASIRHPQHVTEAALKGAHIATLPYKVILQLFKHPLTDKGIEAFLADWKKRGQ
notes: Transaldolase (Ta) of Bacillus methanolicus PB1, UniProt I3E1B6; also called PB1 Ta protein; PB1 Ta gene product; source: E. coli BL21 (DE3), pET28b-ta^PB1, purified (Ni-NTA chromatography)
B1 was tested, and the Km (purified protein) was 2500 µM, the Vmax (purified protein) was 8.9 U/mg and the kcat (purified protein) was 4 s⁻¹. For the same molecule, the kcat/Km (purified protein) was 1.6 s^− 1 mM^− 1 and the “stoichiometry N” value [2] was 2.
